The record followed here is patent publication US20260217797A1 (Takeda / Millennium, published 2026).

As usually defined, the Kd is the free concentration of one partner at which half of the binding sites on the other are occupied at equilibrium, for simple one-to-one binding. High values mean a looser complex, low ones a tighter complex.

The target of one test is SARS-CoV-2 S Trimer (SARS-CoV-2, UniProt P0DTC2 16-1213). The test is described as follows: Octet BLI, IgG, avid. On the technique in general: In BLI a coated tip is dipped into the sample, and binding shifts an interference pattern.
Test [1] addresses T1, SARS-CoV-2 wild type spike protein (on reporter virus particles) (SARS-CoV-2, UniProt P0DTC2 14-1273). The test is described as follows: cell-based or functional assay.
In test [2] the target is T1, SARS-CoV-2 wild type spike protein (on …). Description: cell-based or functional assay. This is another data set of the same source.
The next test deals with SARS-CoV-1 spike protein (SARS-CoV-1, UniProt P59594 14-1255). The test is described as follows: cell-based or functional assay.
In test [3] the target is Bat coronavirus WIV16 spike protein (Bat coronavirus WIV16). The test is described as follows: cell-based or functional assay.
Test [4] concerns the target T1, SARS-CoV-2 wild type spike protein (on …). The test is described as follows: cell-based or functional assay. The source holds these as a separate data set.
Test [5] has the same target. Description: cell-based or functional assay. The source holds these as a separate data set.
Test [6] has the same target. Description: cell-based or functional assay. This is another data set of the same source.
Test [7] has the same target. Description: cell-based or functional assay. The source holds these as a separate data set.
Test [8] addresses T2, SARS-CoV-2 Spike S1-His (SARS-CoV-2, UniProt P0DTC2 16-685). Description: Octet BLI, IgG, monovalent.
In test [9] the target is T3, SARS-CoV1 Spike [change] (SARS-CoV-1, UniProt P59594 14-667). The test is described as follows: Octet BLI, IgG, monovalent.
The next test addresses T4, MERS-CoV [change] (MERS-CoV, UniProt K9N5Q8 18-725).
T4 sequence: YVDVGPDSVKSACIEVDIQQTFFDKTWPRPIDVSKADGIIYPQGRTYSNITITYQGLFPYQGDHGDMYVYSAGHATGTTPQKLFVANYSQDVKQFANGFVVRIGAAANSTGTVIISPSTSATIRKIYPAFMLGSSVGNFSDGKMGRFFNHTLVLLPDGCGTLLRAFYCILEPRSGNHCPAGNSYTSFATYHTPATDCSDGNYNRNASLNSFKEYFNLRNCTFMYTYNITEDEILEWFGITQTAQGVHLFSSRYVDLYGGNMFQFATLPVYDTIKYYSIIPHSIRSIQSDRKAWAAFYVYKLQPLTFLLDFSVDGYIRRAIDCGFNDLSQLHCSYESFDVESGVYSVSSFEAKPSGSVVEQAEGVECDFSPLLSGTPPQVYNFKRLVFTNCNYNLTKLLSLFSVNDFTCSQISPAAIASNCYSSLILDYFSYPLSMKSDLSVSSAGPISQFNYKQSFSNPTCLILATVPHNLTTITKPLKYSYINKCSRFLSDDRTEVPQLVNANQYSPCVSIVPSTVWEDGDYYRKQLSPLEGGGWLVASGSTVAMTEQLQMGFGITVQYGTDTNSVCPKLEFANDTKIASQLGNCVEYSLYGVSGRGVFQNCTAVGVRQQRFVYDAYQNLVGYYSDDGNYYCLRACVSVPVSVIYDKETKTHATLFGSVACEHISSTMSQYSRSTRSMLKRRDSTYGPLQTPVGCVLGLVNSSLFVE
The test is described as follows: Octet BLI, IgG, monovalent.

The target in a further test is SARS-CoV-2 WT RBD (SARS-CoV-2, UniProt P0DTC2 319-541). Description: Octet BLI single point, monovalent.
Test [10] concerns the target T2, SARS-CoV-2 Spike S1-His. The test is described as follows: Octet BLI, Fab, monovalent.
In test [11] the target is T1, SARS-CoV-2 wild type spike protein (on …). The test is described as follows: cell-based or functional assay. The source holds these as a separate data set.
Test [12] has the same target. The test is described as follows: cell-based or functional assay. The source holds these as a separate data set.
Test [13] concerns the target T2, SARS-CoV-2 Spike S1-His. Description: Octet BLI, IgG, monovalent. The source holds these as a separate data set.
Test [14] addresses T3, SARS-CoV1 Spike [change]. The test is described as follows: Octet BLI, IgG, monovalent. This is another data set of the same source.

Numbering of substitutions follows the chain as printed. Where two headings read alike, the source gives them in different places.

B1: A-6 (antibody, V domains shown)
VH: QVQLVQSGGGVVQPGRSLRLSCAASGFTFSNFAMHWVRQAPGKGLEWVAVILYDGINKYYADSVKGRFTISRGNSKNTLSLQMNSLRAEDTAVYYCARAQNYYDRSGTLQLDAFDIWGQGTMVTVSS
VL: DIVMTQSPSSLSASVGDRVTITCRASQGIRNDLGWYQQKPGKAPKLLIYAASSLQSGVPSRFSGSGSGTDFTLTISSLQPEDFATYYCLQDYNYPLTFGGGTKVEIK
As to B1, the dissociation constant (Kd) came to 1.35 nM in the test with SARS-CoV-2 S Trimer, 3.71 nM with SARS-CoV-2 Spike S1-His [8], 17.2 nM in the test with SARS-CoV1 Spike [change] [9] and 1.18 nM in the test with SARS-CoV-2 WT RBD. Further, the “PsV neutralization IC50” value in [1] is 0.173 µg/mL; in test [2], 0.015 µg/mL; in the test with SARS-CoV-1 spike protein it was 1.01 µg/mL; in [3] it was 0.074 µg/mL. The “PsV neutralization IC90” value in test [1] was 2.03 µg/mL; in test [2], 0.085 µg/mL; in [3], 16.3 µg/mL. In test [4], the “PSV IC50” value was found to be 0.878 µg/mL. Moreover, the “SARS2 IC50” value in [5] amounted to 0.023 nM. In addition, the “PsV IC50, Test 1” value in test [6] turned out to be 0.12 nM. Also, in test [6], the “PsV IC50, Test 2” value turned out to be 2.45 nM. Also, in test [7], the “PsV Neut Assay IC50” value amounted to 5.85 nM. Besides, the binding result with MERS-CoV [change] is “no binding”.

B2: A-24 Fab (Fab, V domains shown)
VH: EVQLVESGGGLVKPGRSLRLSCAASGFTFADYAMSWFRQAPGKGLEWVGFIRSKPYGGTTEYAASVKGRFTISRDDSKSIAYLQMNSLKTEDTAVYYCSRDPWYCSGGDCYAVTGSWFDPWGQGTLVTVSS
VL: DIQMTQSPSSLSASVGDRVTITCQASQDIKKYLNWYQQKPGKAPKLLIYDVSNLETGVPSRFSGSGSGTDFTFTISSLQPEDVAIYYCQQYDNLPQTFGQGTKVEIK
As to B2, binding with SARS-CoV-2 Spike S1-His [10] was put at a Kd of 2.97 nM.

B3: A-24.1 Fab (Fab, V domains shown)
VH: B2 VH with A33T, K54E
VL: B2 VL
With B3, in the test with SARS-CoV-2 Spike S1-His [10], the Kd came to 0.539 nM.

B4: A-24.3 Fab (Fab, V domains shown)
VH: B2 VH with A33T, K54E
VL: B2 VL with Q27R, N93Q, K107E
As to B4, the Kd in the test with SARS-CoV-2 Spike S1-His [10] was 0.244 nM. This Kd lies about 2.2-fold lower than the previous one.

B5: A-22 (antibody, V domains shown)
VH: not shown
VL: EIVLTQSPGTLSLSPGERATLSCRASQTVRSDLAWYQQKPGQAPRLLIYGASTRATDISDRFSGSGSGTEFTLTISSLQSEDFAVYYCQQYYEWPPHSDSFGGGTKVEIK
Regarding B5, the “SARS2 PsV IC50” value in [11] is 5 nM. The “PsV neutralization IC50” value in test [1] was determined as 0.749 µg/mL. For the same molecule, the “PsV neutralization IC90” value in [1] came to 3.55 µg/mL. In test [5], the “SARS2 IC50” value came to 0.06 nM. The “WT PsV IC50” value in test [12] stood at 28.8 nM. In addition, the dissociation constant Kd amounted to 0.244 nM with SARS-CoV-2 Spike S1-His [13], 4.51 nM with SARS-CoV1 Spike [change] [14] and 0.325 nM with SARS-CoV-2 WT RBD.
